T1: Est3-(Flag)3 (S. cerevisiae, UniProt Q03096 1-181)
T1 sequence (looked up): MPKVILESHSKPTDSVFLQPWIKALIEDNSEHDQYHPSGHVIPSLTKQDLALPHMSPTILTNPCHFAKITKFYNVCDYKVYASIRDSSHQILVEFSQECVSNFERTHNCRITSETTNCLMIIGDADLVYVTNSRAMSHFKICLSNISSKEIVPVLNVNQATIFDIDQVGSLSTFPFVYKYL

B1: Est1-(myc)12 (natural protein, S. cerevisiae, UniProt P17214 1-699, looked up)
chain: MDNEEVNEECMRLFFKNARAHLDKHLTSRLTCDENAYITFRCFLDGIHRKSTRFLEELLLKQENMYHNNNYERINDSVIPLVLKLLWLQIHEPTLQWFEHWFHDIMRLSNRRKFRVFRIFQKKMIQFFKITHRYYYDIIEHLCAKYDMNSVISNALFAKLNLMQYTDGLSTHEKIILNTSNPLTFSIVISLQRCVINLGSTHFYKTLLNKPSNKPKSVEGFEKSIRYLNIASLYLPAVGDTYFQRAKIYLITGKFSLYFFELVRGALVRIPSKCALNNLKDFILTPDFPERRRLMKKLAILVSKDLKGEKSFFEGQIVLQFLSIVEHTLVPQSWNASRASNCWLLKEHLQMAALKYHSGNINVILENLAATMGSFDLMFTTRKSKEQKNKLKYADLSERQVFFLDLSFDFIANIIDVVIKPSWQKNMEDFRYLAIIRLLMCWIKSYRSILQYTHRHRKFCTSFALLLNDLINSPLNCSGNIYSHRPKRSYLFREDIIFREFSCINFALTDFNDDYVYDSPDMINNIIGCPTLTKVLSPKEECVLRIRSIIFSGMKFLEKNDTGVIWNASKYKFDLISPNIKIKRQIALSEISSKINVKTQQERVVSSRKVEAKRDEQQRKRAGKIAVTELEKQFANVRRTKKLSPLPEKDGVSSELVKHAASRGRKTITGPLSSDFLSYPDEAIDADEDITVQVPDTPT
B2: (myc)12-Est2 (natural protein, S. cerevisiae, UniProt Q06163 1-884, looked up)
chain: MKILFEFIQDKLDIDLQTNSTYKENLKCGHFNGLDEILTTCFALPNSRKIALPCLPGDLSHKAVIDHCIIYLLTGELYNNVLTFGYKIARNEDVNNSLFCHSANVNVTLLKGAAWKMFHSLVGTYAFVDLLINYTVIQFNGQFFTQIVGNRCNEPHLPPKWAQRSSSSSATAAQIKQLTEPVTNKQFLHKLNINSSSFFPYSKILPSSSSIKKLTDLREAIFPTNLVKIPQRLKVRINLTLQKLLKRHKRLNYVSILNSICPPLEGTVLDLSHLSRQSPKERVLKFIIVILQKLLPQEMFGSKKNKGKIIKNLNLLLSLPLNGYLPFDSLLKKLRLKDFRWLFISDIWFTKHNFENLNQLAICFISWLFRQLIPKIIQTFFYCTEISSTVTIVYFRHDTWNKLITPFIVEYFKTYLVENNVCRNHNSYTLSNFNHSKMRIIPKKSNNEFRIIAIPCRGADEEEFTIYKENHKNAIQPTQKILEYLRNKRPTSFTKIYSPTQIADRIKEFKQRLLKKFNNVLPELYFMKFDVKSCYDSIPRMECMRILKDALKNENGFFVRSQYFFNTNTGVLKLFNVVNASRVPKPYELYIDNVRTVHLSNQDVINVVEMEIFKTALWVEDKCYIREDGLFQGSSLSAPIVDLVYDDLLEFYSEFKASPSQDTLILKLADDFLIISTDQQQVINIKKLAMGGFQKYNAKANRDKILAVSSQSDDDTVIQFCAMHIFVKELEVWKHSSTMNNFHIRSKSSKGIFRSLIALFNTRISYKTIDTNLNSTNTVLMQIDHVVKNISECYKSAFKDLSINVTQNMQFHSFLQRIIEMTVSGCPITKCDPLIEYEVRFTILNGFLESLSSNTSKFKDNIILLRKEIQHLQAYIYIYIHIVN

Tests used:
Est3-(Flag)3 [1] = target: T1, Est3-(Flag)3; experiment: co-IP
Est3-(Flag)3 [2] = target: T1, Est3-(Flag)3; experiment: co-IP; remark: listed apart in the source

Binder | fold reduction in the tlc1-59 strain against the TLC1 strain (Est3-(Flag)3 [1]) | Est1:Est2 ratio in the anti-Est3 immunoprecipitate (Est3-(Flag)3 [2]) | fold higher co-precipitation in G2/M than in G1 (Est3-(Flag)3 [2]) | fold increase in G2/M against G1 (quaternary complex) (Est3-(Flag)3 [2])
B1 | ~20 fold | ~4 Est1 per Est2 |  | 
B2 |  |  | ~20 fold | ~20 fold
